Test results from the DeepSol protein solubility set.

Assay: soluble on expression in E. coli; label from the status in PepcDB or PDB records

Soluble on expression in E. coli, soluble:
MNPIQHILDTYPLIVLDGAMATELERKGCNLNDSLWSAKILMEEPELIKQVHTDYFAAGADCAITASYQSTFEGFAARGLSEAEARRLIELSVSIAAEARDEFWSLEENRLNRPKPIIAASIGPYGAYLADGSEYRGNYAISEDELIEFHRPRMKALIEAGADVLACETIPCLTEAKAIVRLLKEFPETYAWISFSAKDGLHISDGTPAADCASWLDEHRQIAALGINCTPLQHIPSLIEELKKNTSKPIIVYPNSGEQYDPETKTWNGAACAESYGASARTWHEKGARLIGGCCRTKPENIQEIAAWARSLKTT
MGSSHHHHHHSSGRENLYFQGHMSHRDTLFSAPIARLGDWTFDERVAEVFPDMIQRSVPGYSNIISMIGMLAERFVQPGTQVYDLGCSLGAATLSVRRNIHHDNCKIIAIDNSPAMIERCRRHIDAYKAPTPVDVIEGDIRDIAIENASMVVLNFTLQFLEPSERQALLDKIYQGLNPGGALVLSEKFSFEDAKVGELLFNMHHDFKRANGYSELEISQKRSMLENVMLTDSVETHKARLHNAGFEHSELWFQCFNFGSLVALKAEDAA
MLDTNMKTQLRAYLEKLTKPVELIATLDDSAKSAEIKELLAEIAELSDKVTFKEDNTLPVRKPSFLITNPGSQQGPRFAGSPLGHEFTSLVLALLWTGGHPSKEAQSLLEQIRDIDGDFEFETYYSLSCHNCPDVVQALNLMAVLNPRIKHTAIDGGTFQNEITERNVMGVPAVFVNGKEFGQGRMTLTEIVAKVDTGAEKRAAEALNKRDAYDVLIVGSGPAGAAAAVYSARKGIRTGLMGERFGGQVLDTVDIENYISVPKTEGQKLAGALKAHVSDYDVDVIDSQSASKLVPAATEGGLHQIETASGAVLKARSIIIATGAKWRNMNVPGEDQYRTKGVTYCPHCDGPLFKGKRVAVIGGGNSGVEAAIDLAGIVEHVTLLEFAPEMKADQVLQDKVRSLKNVDIILNAQTTEVKGDGSKVVGLEYRDRVSGDIHSVALAGIFVQIGLLPNTHWLEGALERNRMGEIIIDAKCETSVKGVFAAGDCTTVPYKQIIIATGEGAKASLSAFDYLIRTKIA
MTNNDTTLQLSSVLNRECTRSRVHCQSKKRALEIISELAAKQLSLPPQVVFEAILTREKMGSTGIGNGIAIPHGKLEEDTLRAVGVFVQLETPIAFDAIDNQPVDLLFALLVPADQTKTHLHTLSLVAKRLADKTICRRLRAAQSDEELYQIITDTEGTPDEA
EVQLVESGGGLVQPGGSLRLSCAASGFTFSRYTMSWVRQAPGKGLEWVATISGGGHTYYLDSVKGRFTISRDNSKNTLYLQMNSLRAEDTAVYYCTRGFGDGGYFDVWGQGTLVTVSSAKTTPPSVYPLAPGSAAQTNSMVTLGCLVKGYFPEPVTVTWNSGSLSSGVHTFPAVLQSDLYTLSSSVTVPSSTWPSETVTCNVAHPASSTKVDKKIVPRDCHHHHHH
MSLKSGTMVEKLASAKTIAFDKTGTITQGQLSVDQVQPINAGITAAELVGLAASVEQESSHILARSIVAYARKQDVPLKNITDLAEVSGAGVKAFVDGAEIRVGKKNFVTQESQETEKIDKTTIHISRNGTYLGRITFTDTVRPEAKETMEKLHQLHLQRILMLTGDQESVAETIAAEVGITEVHGECLPQDKLTILKELPKENHPVIMVGDGVNDAPSLAAADVGIAMGAHGATAASETADVVILKDDLSKVSQAVEIAQDTMKIAKEGHHHHHH
MSLSQEMIKKWLDEEGFLRMEVPDENARFHYVVNYPEDHVIDIIQPAGKDDMILIACATSVSPEHQAGIRALSMEKRTEFIWKVRFTLNRFGVDFQLDHPENVLNSYLVTDEIFFDGLSKDRLISSIKNVFRAKLQVMWMIQERFGEERPEHDSMYVEGHHHHHH

Soluble on expression in E. coli, not soluble:
MGSDKIHHHHHHMTEMNHSVPDDMLMGYASGSLAKAFDLVLATHVSLNDDARARLETFEALGGAILCGMDTVDVDDDSLEQTMAKIRGNAPIERPAPSEGLFPTPLQSMVGGDVDAVRWRSVGGGVKQCVLHSDDGGTVRLLSIAAGRAMPAHSHHGTEMTLVLQGAYRDDDGIFARGDLELADTDTNHQPVAEPGQDCICLVATNAKLKFQGLLPRIAQPFLGI
MMKILPHVTNETAPLRTVVLGLPDSTGGAPALADTYDAKSYESVLRGTYPSDEDIKIEMDAVLDVLVRHGIEVLRPEPIANYNQIFARDVAFAIDDKLFVSNLIADRARESEAFSPIWDCVGESHLVRLSEDIHAEGGDILLYDDILFIGTYLQKDYPSFKTARTNARAVDFFREFFPHKTIIPIELIKHDTDPMRSVLHLDCAFQPVGRSRAIVYRQGFLHSESFGLITEIFGGRDNLFEITPEEAYMMNTNIFSISPDTVISEQNFVRLNNHLREAWGMTVEEVPYAEISKQGGLLRCSTMPLVRE
MEPVFKEPSPKKKRVENPPENAPDAPKKPQLKHESEFLRSIPSSSQYEKSFMHRDTISHVIATKTDFIITASVDGHLKFWKKKHSEGVEFVKHFRCHLSEFSHICANIDGTLLATVCEADKSVKVFDIENFDMINMIKLDFPPKTANWVHQSNDPIAHLAIGAADSGKIIVVDGKATAAPICIKDKLHSTPVKIIEYSQSLDIIVSIDESGMIECWNGERGDFQFPETKLTWEYKLETDLYDFVKAKTIPVCATFDPSGLKLATFAEDRKIRIFNVKTGKLAQLIDETTQKYHCEAKENKNYGLQHMEWSRRLASEKEMDKDKKNSLKYTKICFDQSGNFLLYPTPIGVKVFNLVTNEVSRTIGRDEAIRFVAVSLCNALPDIRQKLQGAAITLETAAADNPTLNRKTDPDPLMVCCALRKNRFYLFTNTEPYNVEDDEGNPSVSGRDVFNERPKKEDLLTALDTEGGEKVLNKEAIIHTSFGDITIRLFGDECPKTVENFCTHSRRGYYNGLTFHRVIKSFMIQTGDPSGKGTGGESIWGEDFEDEFHPRLRHDKPFKVSMANAGGGNTNGSQFFITVCPADWLDGKNTLFGEVTAGMSVVQRINQVSTFERSGRPRESIQIMSISLK
MPNYKLLYFDARALAEPIRIMFAMLNVPYEDYRVSVEEWSKLKPTTPFGQLPILQVDGEQFGQSMSITRYLARKFGLAGKTAEEEAYADSIVDQYRDFIFFFRQFTSSVFYGSDADHINKVRFEVVEPARDDFLAIINKFLAKSKSGFLVGDSLTWADIVIADNLTSLLKNGFLDFNKEKKLEEFYNKIHSIPEIKNYVATRKDSIV
MEYYFTAQKLAVGYDNRPLIENIDFSLKRGEILTLIGPNGAGKSTILKSIARQLSLVSGTIYLDKSDVVTMNGNEFAKKMAVVLTDKLKTELMTCYDVVATGRYPYTGRFGVLSDEDKKAVDEAMELVNVSQIKDKDFTKISDGQRQRVMLSRAICQQPEIIVLDEPTSYLDIKYKLEFLSILQRLKRQKNLTVIMSLHELDMAKRVSDHILCIDGRYVDRYGTPEEVFTDQYVSGLFGITAGSLEHHHHHH
MAAASVKGFFQRTGISIKEYFKRMGNDYATVARETVQGCKDRPVKAGVVFSGLGFLTYAYQTNPTELEMYDYLCERRQKLVLVPNSEHNPATTKELTARDFLISQNRLHYYNLWFFSLLVASDYNDKLRIYSSQDSNLKDWPWTELWRNIVDIGALGRWHRMETAFVDYDVNTDEIDLLPDGDKN
KKPIPTLFLHGFGGSANSEKFMVKQAEKRGVTKDIITAYVSKDGAVTFKGKLRKDAVNPIVKIELENNRQGYLDKNAAWFKNVLTKLQSEYNFDKFNFVGHSMGNLTFAQYMMTYGNDKSLPQLNKQVNIAGTFNGVLNMNEDVNEITVDKDGKPSRMNQPYQQLRVLKDIYKGKGIEVLNIYGDLKDGTHSDGRVSNSSSKSLKYLLGNSPKSYRESKYEGEPAQHSQLHENENVANELIDFLWKK
MGSDKIHHHHHHMALWQAKQVCPEIIFVPPRMDLYLRFSQMAREIYSEYTDKIEPYGIDEAWLDVSDSGNLKGSGMTIAREISHRIKYELGVTVSIGISWNKIYAKLGSDYKKPDAITEFNRENYKDRIWQLPASDLLYVGRQTNKKLQKLGIRTIGQLAESDEKLLESHFGKIGNVLWAFANGWDEDPVCKEGYEAPVKSIGNSTTTPRDLENDLDVWIIQIALAESVAARLRKHGFKCKTVEITVRDNGLYSFSRQIHLRQPTNITNEIVTAAFQLFKDNYKWEHPIRSLGIRAADLVLDDIPVQLDLFGNQEKKEKLEKLDRTVDEIRRRFGYFSIQRAAMYQDKVLSHLDAGTHTVHPHSYFHG
